From patent publication US20230257470A1 (published 2023)
Positions count from the first letter of the chain named. Names and notes keep the numbering of the source. Blank lines part the entries; values can stand above or below the binder they belong to.

What was measured:
human FcγRIIIa(F) = target: T1, human FcγRIIIa(F) (human, UniProt P08637 17-208, limits assumed); test: SPR, antibody captured, FcγR as analyte, capture-corrected binding amount
T1 construct: the assay used allotype F; also called FcgRIIIaF; FcγRIIIa allotype F158

human FcγRIIb [1] = target: T2, human FcγRIIb (human, UniProt P31994 43-217, limits assumed); test: SPR, captured antibody, FcγR as analyte
T2 construct: Soluble analyte in SPR; also called FcgRIIb; FcγIIB
T2 sequence: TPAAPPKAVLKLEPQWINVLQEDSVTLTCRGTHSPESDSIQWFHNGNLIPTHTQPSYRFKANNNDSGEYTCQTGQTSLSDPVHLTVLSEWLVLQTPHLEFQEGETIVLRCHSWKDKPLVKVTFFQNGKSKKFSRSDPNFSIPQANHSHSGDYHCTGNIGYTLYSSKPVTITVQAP

mouse FcγRI = target: T3, mouse FcγRI (mouse, UniProt P26151 25-297); test: SPR, antibody captured by Protein L, mouse FcγR injected, pH 7.4
T3 construct: Bought protein; construct not described; also called mFcgRI
T3 sequence (looked up): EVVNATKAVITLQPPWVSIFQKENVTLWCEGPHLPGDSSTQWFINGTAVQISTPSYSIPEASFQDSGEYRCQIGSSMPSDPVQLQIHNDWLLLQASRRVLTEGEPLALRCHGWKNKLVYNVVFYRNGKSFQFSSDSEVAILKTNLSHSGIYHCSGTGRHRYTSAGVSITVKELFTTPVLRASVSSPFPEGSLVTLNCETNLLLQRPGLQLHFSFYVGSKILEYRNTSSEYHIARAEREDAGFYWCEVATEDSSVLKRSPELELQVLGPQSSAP

mouse FcγRIIb = target: T4, mouse FcγRIIb (mouse, UniProt P08101 40-217, limits assumed); test: as above
T4 construct: Bought protein; construct not described; also called mFcgRIIb
T4 sequence (looked up): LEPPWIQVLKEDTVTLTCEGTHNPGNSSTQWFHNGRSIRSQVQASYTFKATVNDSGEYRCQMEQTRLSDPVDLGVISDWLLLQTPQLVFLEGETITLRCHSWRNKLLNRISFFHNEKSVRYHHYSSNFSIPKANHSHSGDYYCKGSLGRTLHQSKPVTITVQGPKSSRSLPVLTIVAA

mouse FcγRIII = target: T5, mouse FcγRIII (mouse, UniProt P08508 31-215); test: as above
T5 construct: Bought protein; construct not described; also called mFcgRIII
T5 sequence (looked up): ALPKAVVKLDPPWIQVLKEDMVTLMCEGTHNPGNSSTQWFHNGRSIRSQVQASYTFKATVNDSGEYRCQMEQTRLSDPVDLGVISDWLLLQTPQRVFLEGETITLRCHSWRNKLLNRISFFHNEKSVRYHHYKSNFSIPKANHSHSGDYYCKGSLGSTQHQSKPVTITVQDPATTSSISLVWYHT

[2] = target: T6, human FcγRIIa(H) (allotype H131) (human, UniProt P12318 36-217); test: SPR (Biacore T100), ratio of the KD values of Table 24
T6 construct: Soluble analyte in SPR; also called hFcgRIIa(H); FcgRIIaH
T6 sequence: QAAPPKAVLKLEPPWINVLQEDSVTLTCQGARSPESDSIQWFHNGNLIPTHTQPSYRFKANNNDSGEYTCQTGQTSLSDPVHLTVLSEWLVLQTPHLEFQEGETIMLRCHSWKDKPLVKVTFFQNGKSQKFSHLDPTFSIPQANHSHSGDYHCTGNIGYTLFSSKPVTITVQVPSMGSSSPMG

[3] = target: T7, human FcγRIIa(R) (allotype R131) (human, UniProt P12318 36-217); test: as above
T7 construct: Soluble analyte in SPR; also called hFcgRIIa(R); FcgRIIaR
T7 chain: T6 sequence with H133R

human FcγRIa = target: T8, human FcγRIa (human, UniProt P12314 16-292, limits assumed); test: as above
T8 construct: Soluble analyte in SPR; also called hFcgRIa; FcgRIa

human FcγRIIb [4] = target: T9, human FcγRIIb (human, UniProt P31994 43-217, limits assumed); test: as above
T9 construct: Soluble analyte in SPR; also called hFcgRIIb; FcgRIIb
T9 sequence: T2 sequence

human FcγRIIa type R = target: T10, human FcγRIIa type R (human, UniProt P12318 36-217); test: SPR (Biacore), antibody captured on Protein A chip, FcγR as analyte, 25 C, method of Example 14
T10 construct: also called FcγRIIaR; FcγRIIa(R)
T10 chain: T6 sequence with H133R

human FcγRIIb [5] = target: T11, human FcγRIIb (human, UniProt P31994 43-217, limits assumed); test: ratio of SPR KD values: KD for FcγRIIaR divided by KD for FcγRIIb
T11 construct: Whole entry (AAI46679.1); also called FcγIIB; FcgRIIb
T11 sequence: T2 sequence

human FcγRIIb [6] = target: T11, human FcγRIIb; test: SPR (Biacore), antibody captured on Protein A chip, FcγR as analyte, 25 C, method of Example 14

T8 sequence (P12314 16-292 limits assumed): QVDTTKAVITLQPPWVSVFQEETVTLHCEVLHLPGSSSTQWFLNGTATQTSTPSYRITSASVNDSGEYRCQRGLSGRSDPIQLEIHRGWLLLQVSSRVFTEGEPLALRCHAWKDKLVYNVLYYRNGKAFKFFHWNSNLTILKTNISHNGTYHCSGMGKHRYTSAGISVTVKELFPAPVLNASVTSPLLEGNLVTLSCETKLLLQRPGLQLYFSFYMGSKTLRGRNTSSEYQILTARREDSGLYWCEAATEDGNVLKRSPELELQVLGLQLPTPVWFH
T1 sequence (P08637 other isoform, or with tags, fused parts or gaps limits assumed): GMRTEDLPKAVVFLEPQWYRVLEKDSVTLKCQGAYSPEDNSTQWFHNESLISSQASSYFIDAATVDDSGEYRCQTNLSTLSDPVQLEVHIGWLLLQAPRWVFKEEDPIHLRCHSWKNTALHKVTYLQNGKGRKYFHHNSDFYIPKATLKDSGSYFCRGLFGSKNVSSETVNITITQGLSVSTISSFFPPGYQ

relative binding activity (human FcγRIIIa(F)): 1 % of GpH7-B3/GpL16-k0
B1: GpH7-B3 N325F/GpL16-k0 (antibody, human IgG1)
heavy: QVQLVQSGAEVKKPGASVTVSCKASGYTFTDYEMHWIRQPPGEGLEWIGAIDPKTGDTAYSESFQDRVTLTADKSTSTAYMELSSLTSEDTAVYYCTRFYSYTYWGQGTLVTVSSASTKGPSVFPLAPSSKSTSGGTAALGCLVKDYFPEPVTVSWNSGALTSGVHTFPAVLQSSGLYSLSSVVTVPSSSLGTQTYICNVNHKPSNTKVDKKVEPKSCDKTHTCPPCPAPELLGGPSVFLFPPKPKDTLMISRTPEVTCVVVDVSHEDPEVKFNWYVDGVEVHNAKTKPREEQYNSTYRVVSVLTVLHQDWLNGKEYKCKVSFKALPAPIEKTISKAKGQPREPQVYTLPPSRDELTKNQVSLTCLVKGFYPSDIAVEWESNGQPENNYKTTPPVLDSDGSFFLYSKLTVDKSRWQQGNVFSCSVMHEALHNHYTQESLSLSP
light: DIVMTQSPLSLPVTPGEPASISCQASESLVHSNRNTYLHWYLQKPGQSPQLLIYKVSNRFSGVPDRFSGSGSGTDFTLKISRVEAEDVGVYYCSQNTHVPPTFGQGTKVEIE
notes: Anti-glypican-3 human IgG1 with B3 constant region (G1d with K439E); also called B3 variant; copies: 2 + 2

relative binding activity (human FcγRIIIa(F)): 12 % of GpH7-B3/GpL16-k0
B2: GpH7-B3 Y300R/GpL16-k0 (antibody, human IgG1)
heavy: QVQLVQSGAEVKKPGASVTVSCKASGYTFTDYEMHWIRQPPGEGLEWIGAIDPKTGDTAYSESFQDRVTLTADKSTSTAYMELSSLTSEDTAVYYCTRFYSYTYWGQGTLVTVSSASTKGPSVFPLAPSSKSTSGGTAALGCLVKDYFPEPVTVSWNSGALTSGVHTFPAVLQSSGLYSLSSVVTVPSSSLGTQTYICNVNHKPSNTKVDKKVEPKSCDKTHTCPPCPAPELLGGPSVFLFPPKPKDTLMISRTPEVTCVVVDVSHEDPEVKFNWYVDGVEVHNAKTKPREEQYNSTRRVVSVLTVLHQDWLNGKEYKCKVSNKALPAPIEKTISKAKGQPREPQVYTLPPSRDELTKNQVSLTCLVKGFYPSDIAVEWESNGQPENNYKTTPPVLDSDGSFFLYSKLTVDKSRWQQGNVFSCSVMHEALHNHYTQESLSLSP
light: B1 light
notes: as for B1

relative binding activity (human FcγRIIb [1]): 1 % of GpH7-B3/GpL16-k0
B3: GpH7-B3 variant G237R/GpL16-k0 (antibody, human IgG1)
heavy: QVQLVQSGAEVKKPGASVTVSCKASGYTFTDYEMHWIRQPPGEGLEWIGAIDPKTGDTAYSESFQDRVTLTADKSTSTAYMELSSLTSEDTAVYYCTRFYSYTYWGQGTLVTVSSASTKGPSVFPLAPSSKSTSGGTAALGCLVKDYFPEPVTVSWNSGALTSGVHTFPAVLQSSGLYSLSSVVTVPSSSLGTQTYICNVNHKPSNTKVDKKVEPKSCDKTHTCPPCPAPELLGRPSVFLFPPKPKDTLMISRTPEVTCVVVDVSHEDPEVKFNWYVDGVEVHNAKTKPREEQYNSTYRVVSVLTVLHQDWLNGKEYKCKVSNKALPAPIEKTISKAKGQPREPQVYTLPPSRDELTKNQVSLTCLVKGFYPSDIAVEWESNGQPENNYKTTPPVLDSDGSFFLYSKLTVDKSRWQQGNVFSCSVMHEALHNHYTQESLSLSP
light: B1 light
notes: copies: 2 + 2

relative binding activity (human FcγRIIb [1]): 2 % of GpH7-B3/GpL16-k0
B4: GpH7-B3 variant D265M/GpL16-k0 (antibody, human IgG1)
heavy: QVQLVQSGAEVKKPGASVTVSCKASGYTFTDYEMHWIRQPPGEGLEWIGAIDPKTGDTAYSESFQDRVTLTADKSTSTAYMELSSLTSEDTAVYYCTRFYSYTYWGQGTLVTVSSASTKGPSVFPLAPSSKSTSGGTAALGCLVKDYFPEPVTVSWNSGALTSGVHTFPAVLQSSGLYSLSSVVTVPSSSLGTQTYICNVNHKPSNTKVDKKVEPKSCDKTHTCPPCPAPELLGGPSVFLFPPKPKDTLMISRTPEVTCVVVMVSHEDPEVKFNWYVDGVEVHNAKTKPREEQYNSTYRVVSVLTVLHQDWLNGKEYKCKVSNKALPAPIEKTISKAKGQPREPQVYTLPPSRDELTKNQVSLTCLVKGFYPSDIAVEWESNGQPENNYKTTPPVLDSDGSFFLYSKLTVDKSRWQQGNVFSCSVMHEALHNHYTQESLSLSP
light: B1 light
notes: copies: 2 + 2

binding result (mouse FcγRI): no binding
binding result (mouse FcγRIIb): no binding
binding result (mouse FcγRIII): no binding
B5: VH3/L(WT)-IgG1-F821 (antibody)
heavy: QVQLQESGPGLVKPSETLSLTCAVSGHSISHDHAWSWVRQPPGEGLEWIGFISYSGITNYNPSLQGRVTISRDNSKNTLYLQMNSLRAEDTAVYYCARSLARTTAMDYWGEGTLVTVSSASTKGPSVFPLAPSSKSTSGGTAALGCLVKDYFPEPVTVSWNSGALTSGVHTFPAVLQSSGLYSLSSVVTVPSSSLGTQTYICNVNHKPSNTKVDKKVEPKSCDKTHTCPPCPAPELRGGPKVFLFPPKPKDTLYISRTPEVTCVVVDVSHEDPEVKFNWYVDGVEVHNAKTKPREEQYNSTYRVVSVLTVLHQDWLNGKEYKCKVSNKALPAPIEKTISKAKGQPREPQVYTLPPSRDELTKNQVSLTCLVKGFYPSDIAVEWESNGQPENNYKTTPPVLDSDGSFFLYSKLTVDKSRWQQGNVFSCSVMHEALHYHYTQKSLSLSP
light: not shown
notes: L235R/S239K variant of VH3-IgG1-F11 with L(WT)-CK; also called VH3-IgG1-F821; copies: 2 + 2

binding result (mouse FcγRI): no binding
binding result (mouse FcγRIIb): no binding
binding result (mouse FcγRIII): no binding
B6: VH3/L(WT)-IgG1-F939 (antibody)
heavy: B5 heavy with Y438V
light: not shown
notes: L235R/S239K variant of VH3-IgG1-F890 with L(WT)-CK; also called VH3-IgG1-F939; copies: 2 + 2

relative KD (KD of IgG1 / KD of the variant) [2]: 0.014 fold
relative KD (KD of IgG1 / KD of the variant) [3]: 0.1 fold
relative KD (KD of IgG1 / KD of the variant) (human FcγRIa): 0.047 fold
relative KD (KD of IgG1 / KD of the variant) (human FcγRIIb [4]): 4.8 fold
B7: IgG1-v1 (antibody containing IL6R-G1d_v1 as H chain and IL6R-L as L chain) (antibody)
heavy: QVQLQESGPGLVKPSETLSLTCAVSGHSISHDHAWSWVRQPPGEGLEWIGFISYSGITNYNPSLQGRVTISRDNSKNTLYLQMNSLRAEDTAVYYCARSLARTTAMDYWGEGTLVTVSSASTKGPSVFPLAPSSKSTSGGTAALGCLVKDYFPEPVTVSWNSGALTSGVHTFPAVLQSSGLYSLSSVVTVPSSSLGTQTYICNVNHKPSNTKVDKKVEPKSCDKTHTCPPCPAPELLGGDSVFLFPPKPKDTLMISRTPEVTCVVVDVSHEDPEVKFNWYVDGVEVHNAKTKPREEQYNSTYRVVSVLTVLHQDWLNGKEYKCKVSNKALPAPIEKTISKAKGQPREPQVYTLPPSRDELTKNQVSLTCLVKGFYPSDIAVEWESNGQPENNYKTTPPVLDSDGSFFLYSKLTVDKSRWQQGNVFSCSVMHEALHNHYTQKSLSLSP
light: DIQMTQSPSSLSASVGDRVTITCRASQDISSYLNWYQQKPGKAPKLLIYYTSRLHSGVPSRFSGSGSGTDFTFTISSLQPEDIATYYCQQGNTLPYTFGQGTKVEIK
notes: IL6R-G1d with P238D (EU numbering); also called P238D

Kd (human FcγRIIa type R): 11 µM
B8: IL6R-B3/IL6R-L (antibody, human IgG1)
heavy: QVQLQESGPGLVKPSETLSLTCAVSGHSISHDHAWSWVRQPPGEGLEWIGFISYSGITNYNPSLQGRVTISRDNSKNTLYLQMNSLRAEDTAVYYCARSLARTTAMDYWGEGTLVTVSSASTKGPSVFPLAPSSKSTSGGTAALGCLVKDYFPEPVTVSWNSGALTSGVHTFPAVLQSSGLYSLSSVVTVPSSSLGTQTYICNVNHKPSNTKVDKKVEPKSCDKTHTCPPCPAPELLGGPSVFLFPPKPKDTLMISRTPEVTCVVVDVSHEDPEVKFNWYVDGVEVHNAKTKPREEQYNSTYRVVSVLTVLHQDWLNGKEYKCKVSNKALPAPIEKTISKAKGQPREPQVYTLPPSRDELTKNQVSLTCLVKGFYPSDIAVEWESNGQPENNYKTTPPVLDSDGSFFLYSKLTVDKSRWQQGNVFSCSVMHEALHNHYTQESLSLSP
light: B7 light
notes: IL6R-G1d with K439E (EU numbering); also called parent polypeptide

KD(IIaR)/KD(IIb) (human FcγRIIb [5]): 15
B9: IL6R-BP087/IL6R-L (antibody, human IgG1, name in EU numbering)
heavy: B5 heavy with L236Y, R237L, P240D, K241S, Y254M, A332K, Y436N, K441E
light: B7 light
notes: Alterations introduced into IL6R-B3 (EU numbering)

Kd (human FcγRIIb [6]): 10 µM
B10: IL6R-2B261/IL6R-L (antibody, human IgG1, name in EU numbering)
heavy: B5 heavy with E235D, R237L, P240D, K241S, Y254M, Y298D, Y436N, K441E
light: B7 light
notes: as for B9

Kd (human FcγRIIa type R): 21 µM
B11: IL6R-BP146/IL6R-L (antibody, human IgG1, name in EU numbering)
heavy: B5 heavy with L236Y, R237L, G239D, P240D, K241S, Y254M, K328A, Y436N, K441E
light: B7 light
notes: as for B9

KD(IIaR)/KD(IIb) (human FcγRIIb [5]): 15.5
B12: IL6R-BP089/IL6R-L (antibody, human IgG1, name in EU numbering)
heavy: B5 heavy with L236Y, R237L, P240D, K241S, Y254M, K328A, A332K, Y436N, K441E
light: B7 light
notes: as for B9

KD(IIaR)/KD(IIb) (human FcγRIIb [5]): 18.5
B13: IL6R-BP180/IL6R-L (antibody, human IgG1, name in EU numbering)
heavy: B5 heavy with R237L, G239D, P240D, K241S, Y254M, P273G, A332K, Y436N, K441E
light: B7 light
notes: as for B9

Kd (human FcγRIIb [6]): 12 µM
B14: IL6R-BF648/IL6R-L (antibody, human IgG1, name in EU numbering)
heavy: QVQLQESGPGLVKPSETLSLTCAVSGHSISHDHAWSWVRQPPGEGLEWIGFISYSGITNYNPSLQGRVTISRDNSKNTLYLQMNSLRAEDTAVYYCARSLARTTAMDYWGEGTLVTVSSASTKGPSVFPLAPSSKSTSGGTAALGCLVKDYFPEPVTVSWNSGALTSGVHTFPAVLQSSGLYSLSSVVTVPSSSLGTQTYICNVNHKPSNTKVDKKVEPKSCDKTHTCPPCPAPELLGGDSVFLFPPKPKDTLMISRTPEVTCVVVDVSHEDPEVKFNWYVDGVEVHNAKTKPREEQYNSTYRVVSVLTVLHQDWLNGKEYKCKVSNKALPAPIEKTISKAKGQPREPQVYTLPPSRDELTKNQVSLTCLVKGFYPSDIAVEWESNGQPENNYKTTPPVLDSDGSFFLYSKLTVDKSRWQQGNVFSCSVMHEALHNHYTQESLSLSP
light: B7 light
notes: Alteration introduced into IL6R-B3; positions in EU numbering

KD(IIaR)/KD(IIb) (human FcγRIIb [5]): 15.7
B15: IL6R-BP179/IL6R-L (antibody, human IgG1, name in EU numbering)
heavy: B5 heavy with R237L, G239D, P240D, K241S, Y254M, P273G, K328A, A332K, Y436N, K441E
light: B7 light
notes: as for B9

Kd (human FcγRIIa type R): 10 µM
Kd (human FcγRIIb [6]): 26 µM
B16: IL6R-G1d/IL6R-L (antibody, human IgG1)
heavy: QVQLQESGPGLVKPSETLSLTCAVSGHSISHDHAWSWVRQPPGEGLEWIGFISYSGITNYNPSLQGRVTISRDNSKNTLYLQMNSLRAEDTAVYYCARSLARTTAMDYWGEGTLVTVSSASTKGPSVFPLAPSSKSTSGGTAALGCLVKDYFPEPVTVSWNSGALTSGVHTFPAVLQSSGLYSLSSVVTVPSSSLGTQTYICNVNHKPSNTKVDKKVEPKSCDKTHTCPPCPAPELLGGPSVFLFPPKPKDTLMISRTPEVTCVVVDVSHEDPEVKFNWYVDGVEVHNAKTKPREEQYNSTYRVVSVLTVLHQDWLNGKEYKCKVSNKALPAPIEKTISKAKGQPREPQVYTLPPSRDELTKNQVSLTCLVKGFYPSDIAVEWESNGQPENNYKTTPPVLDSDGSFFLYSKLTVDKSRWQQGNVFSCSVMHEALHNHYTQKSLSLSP
light: B7 light
notes: Anti-human IL-6 receptor IgG1, G1d constant region; also called IgG1

relative KD (KD of IgG1 / KD of the variant) [2]: 0.51 fold
relative KD (KD of IgG1 / KD of the variant) [3]: 522 fold
relative KD (KD of IgG1 / KD of the variant) (human FcγRIa): 1.8 fold
relative KD (KD of IgG1 / KD of the variant) (human FcγRIIb [4]): 408 fold
B17: IgG1-v3 (antibody containing IL6R-G1d_v3 as H chain and IL6R-L as L chain) (antibody)
heavy: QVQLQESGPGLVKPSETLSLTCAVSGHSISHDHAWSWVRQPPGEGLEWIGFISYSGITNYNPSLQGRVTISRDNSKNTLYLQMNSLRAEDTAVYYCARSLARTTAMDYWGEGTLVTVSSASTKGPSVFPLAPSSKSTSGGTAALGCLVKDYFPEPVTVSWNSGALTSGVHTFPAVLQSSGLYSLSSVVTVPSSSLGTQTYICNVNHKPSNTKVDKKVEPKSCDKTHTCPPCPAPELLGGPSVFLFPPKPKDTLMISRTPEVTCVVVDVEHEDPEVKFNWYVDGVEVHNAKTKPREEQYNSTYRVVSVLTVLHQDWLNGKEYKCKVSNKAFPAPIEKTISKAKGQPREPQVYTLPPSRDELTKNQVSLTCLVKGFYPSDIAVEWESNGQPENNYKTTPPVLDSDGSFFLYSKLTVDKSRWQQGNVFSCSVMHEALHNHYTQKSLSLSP
light: B7 light
notes: IL6R-G1d with S267E/L328F (EU numbering); also called S267E/L328F

relative KD (KD of IgG1 / KD of the variant) [2]: 0.064 fold
relative KD (KD of IgG1 / KD of the variant) [3]: 0.41 fold
relative KD (KD of IgG1 / KD of the variant) (human FcγRIa): 0.74 fold
relative KD (KD of IgG1 / KD of the variant) (human FcγRIIb [4]): 2.3 fold
B18: IgG1-v2 (antibody containing IL6R-G1d_v2 as H chain and IL6R-L as L chain) (antibody)
heavy: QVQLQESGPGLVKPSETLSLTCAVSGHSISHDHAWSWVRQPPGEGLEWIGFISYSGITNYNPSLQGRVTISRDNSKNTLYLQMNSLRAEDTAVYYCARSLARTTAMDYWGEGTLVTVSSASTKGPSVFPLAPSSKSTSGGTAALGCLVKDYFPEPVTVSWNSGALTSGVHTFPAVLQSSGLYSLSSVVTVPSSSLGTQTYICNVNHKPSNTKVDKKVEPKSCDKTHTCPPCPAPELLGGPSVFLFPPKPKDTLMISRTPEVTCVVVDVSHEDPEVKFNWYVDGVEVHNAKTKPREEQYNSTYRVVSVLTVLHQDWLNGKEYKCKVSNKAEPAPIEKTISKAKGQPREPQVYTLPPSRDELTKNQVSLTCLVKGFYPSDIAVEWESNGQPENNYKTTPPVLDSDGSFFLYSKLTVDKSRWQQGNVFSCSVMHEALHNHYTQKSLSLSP
light: B7 light
notes: IL6R-G1d with L328E (EU numbering); also called L328E

KD(IIaR)/KD(IIb) (human FcγRIIb [5]): 15.9
B19: IL6R-BP151/IL6R-L (antibody, human IgG1, name in EU numbering)
heavy: QVQLQESGPGLVKPSETLSLTCAVSGHSISHDHAWSWVRQPPGEGLEWIGFISYSGITNYNPSLQGRVTISRDNSKNTLYLQMNSLRAEDTAVYYCARSLARTTAMDYWGEGTLVTVSSASTKGPSVFPLAPSSKSTSGGTAALGCLVKDYFPEPVTVSWNSGALTSGVHTFPAVLQSSGLYSLSSVVTVPSSSLGTQTYICNVNHKPSNTKVDKKVEPKSCDKTHTCPPCPAPDYLGDDSVFLFPPKPKDTLMISRTPEVTCVVVDVSHEDPEVKFNWYVDGVEVHNAKTKPREEQYNSTYRVVSVLTVLHQDWLNGKEYKCKVSNAALPRPIEKTISKAKGQPREPQVYTLPPSRDELTKNQVSLTCLVKGFYPSDIAVEWESNGQPENNYKTTPPVLDSDGSFFLYSKLTVDKSRWQQGNVFSCSVMHEALHNHYTQESLSLSP
light: B7 light
notes: as for B9
